Experimental data taken from patent US20260258115A1 (MAPP BIOPHARMACEUTICAL, published 2026).

B1: ADI-41342 (antibody, V domains shown)
VH: QVQLVQSGAEVKKPGSSVKVSCKASGGTLTSYGVSWVRQAPGQGLEWMGGIIPIFGTVDYAQKFQGRVTITADEPTSTAYMELSSLTSDDTAVYYCARDPWVSGPVEFYYYFDVWGRGTLVTVSS
VL: DIVLTESPATLSLSPGERATLSCRASQSINNRYLAWYQQKPGQAPRLLIFGASSRATGIPDRFSGSGSGTDFTLTISRLEPEDFAVYYCQQYGSTPPTFGQGTKVEIK
B2: ADI-41340 (antibody, V domains shown)
VH: QVQLVQSGAEVKTPGSSVKVSCKASGGTFRSYPITWVRQAPGQGLEWMGTVIPVFDTVNYAPKFQGRVSITADESTNTAYMELSSLRSDDSAVYYCARDLGWLRPMTTVTSPHFDYWGQGTLVTVSS
VL: QSVLTQPASVSGSPGQSITISCTGTSSDVGGYDFVSWYQQHPGKAPKLMISEVTDRPSGVSNRFSGSKSGNTASLTISGLQAEDEADYYCTSYTSSRTYVFGTGTKLTVL
B3: ADI-41324 (antibody, V domains shown)
VH: EVQLVESGGGLVQPGGSLRLSCAASGFTVSNNYMRWVRQAPGKGLEWVSVIYSSGSTDYADSVKGRFTISRDNSKNTLYLQMNSLRAEDTAVYYCARERTLFYYDSSGFFDYWGQGTLVTVSS
VL: ETTLTQSPGTLSLSPGERATLSCRASQSVDSSYLAWYQQKPGQAPRLLIYGASNRATGIPDRFSGSGSGTDFTLTISRLEPEDFAVYYCQQYGRSLTFGGGTKLEIK
B4: ADI-41323 (antibody, V domains shown)
VH: EVQLLESGGGVVRPGGSLRLSCAASGFTFDDYAMGWVRQAPGKGLEWVSGITWNAGSTAYAGSVKGRFTISRDNAKNSLFLQMNSLRAEDTAFYLCARHVDSSGPVARHFDYWGQGTLVTVSS
VL: NFMLTQPHSVSESPGKTVTISCTRSSGSIARNYVQWYQQRPGSAPTIVIYEDNQRPSGVPDRFSGSIDSSSNSASLTISGLKTEDEADYYCQSYDPSNVVFGGGTKLTVL
B5: ADI-41345 (antibody, V domains shown)
VH: EVQLVQSGAEVRKPGESLKISCKGSGYNFASYWIAWVRQMPGKGLEWMGIIFPGDSDTRYSPSFQGQVTISVDKSISTAYLQWSSLKASDTAIYYCATSKYTFGYLDWGQGTLVTVSS
VL: NFMLTQPHSVSESPGKTVTISCTRSSGSIASNYVQWYQQRPGSAPTTVIYEDNQRPSGVPDRFSGSIDSSSNSASLTISGLKTEDEADYYCQSYDTSNQVFGTGTKVTVL
B6: ADI-41341 (antibody, V domains shown)
VH: QVQLVQSGAEVKKPGSSVKVSCKASGGTFSSYATHWVRQAPGQGLEWMGGIIPIFGRATYAQKFQGRVTISADESTSTAYMELSSLRSEDTAVYYCARGRDDRSGDHIAFLYHYGMDVWGQGSTVTVSS
VL: QSVLTQPPSVSAAPGQKVSISCSGSSSNIGINHASWYQHLPGTAPKLLIYDNNKRPSGIPDRFSGSKSGTSATLGISGLQTGDEAAYYCGTWDTGLSAVVFGGGTKLTVL
B7: ADI-41343 (antibody, V domains shown)
VH: EVQLVESGGGLVKPGGSLRLSCAASGFTFSSYYMNWVRQAPGKGLEWVSSISGGSSYISYADSVKGRFTISRDNAKNSLYLQMNSLRAEDTAVYYCARVDTPMVRGYYFDYWGQGTLVTVSS
VL: QSVLTQPPSVSGAPGRRVTISCTGSSSNIGAGYDVHWYQQLPGTAPKLLIFANSNRPSGVPDRFSGSKSGTSASLAITGLQAEDEADYYCQSYDSSLSGSVFGGGTKVTVL
B8: ADI-41344 (antibody, V domains shown)
VH: EVQLVESGGGLVKPGGSLRLSCAASGSSFSSYYMNWVRQAPGKGLEWVSSISSSSTYIDYADSVKGRFTISRDNAKNSLFLQMNSLRAEDTAVYYCARVSSPMIRGYYLDYWGQGTLVTVSS
VL: QPVLTQPPSVSGAPGQRVTISCTGSSSNIGAGYDVHWYQQLPGTAPKLVIHGNSNRPSGVPDRFSGSKSGTSASLAITGLQGEDEADYYCQSYDSSLSGSVFGGGTKLTVL

Target: RSV F on RSV-A2 virus (Respiratory syncytial virus (RSV-A2))
Test: cell-based or functional assay

Binder	Neutralization IC50 (RSV subtype A)
B1	> 25 µg/mL
B2	> 25 µg/mL
B3	> 25 µg/mL
B4	> 25 µg/mL
B5	> 25 µg/mL
B6	> 25 µg/mL
B7	0.177 µg/mL
B8	0.0637 µg/mL
